Assay results: patent publication US12338291B2, “Humanized antibody molecules to CD138 and uses thereof” (VISTERRA, INC., priority 2019, dated 2025)

Assays:
[1] = Differential scanning fluorescence (DSF) thermal stability; assay type: physicochemical; conditions: PBS pH 7.4, 25-95 °C, first thermal transition
From the text: Thermal stability represents an important property of antibodies and is used as a predictive surrogate of pharmaceutical drug stability in humans based on a relative stability profile as characterized by differential thermal melting profiles. Several methods exist for evaluation of product stability based on thermal melting. These include, for example, circular dichroism (CD), differential scanning calorimetry (DSC), and differential scanning fluorescence (DSF), among others. In this example, the thermal stabilities of select humanized anti-CD138 antibodies were evaluated by DSF. DSF was used to monitor the conformational stability of a protein as it was exposed to increasing thermal stress. The dye, SYPRO Orange®, fluoresces in a hydrophobic environment, such as hydrophobic core residues that are exposed during thermally triggered protein unfolding, or denaturation. In brief, SYPRO® Orange Dye (Sigma Chemical) was diluted 1:500 in phosphate buffered saline (PBS), pH 7.4, without addition of any detergents. Antibodies were likewise diluted in PBS to a target concentration of 0.5 mg/mL. 15 μl of diluted antibody and fluorescent dye were added 1:1 (v/v) into a 96 well microtiter plate and thoroughly mixed by repeat pipetting. Thermal scans were carried out using a real-time quantitative PCR (qPCR) thermal cycler with fluorescence detection capabilities. Scans were initiated at 25° C. with incremental increase in well temperature of 1° C. ramp/minute from 25° C. to 95° C. The mid-point (Tm) between native state and the first unfolding event was reported as the transition temperature or melt temperature (TM). TMs were then calculated based on transformation of the data using the first derivative of the fluorescence signal versus time. (dfluoresence/dtime) (FIG. 7).

MM1.S (Luc) cells = assay: MM.1S Luc xenograft multiple myeloma model in C.B-17 SCID mice, dose escalation (Example 7); assay type: in vivo
[2] = Antibody production titers in Chinese hamster ovary cells; conditions: CHO transient transfection, after Protein A purification
From the text: The yields represent antibody amounts following purification from cell culture media by Protein A affinity chromatography, carried out under identical transfection conditions and culture scale. Differential pre-purification titers based on quantification using Protein-A biosensors (bio-layer interferometry) of antibody in culture media was also noted likewise indicating differential expression levels (antibody titers).

B1: mAb 2810: parental mouse-human chimeric anti-CD138 antibody; VH SEQ ID NO: 296, VL SEQ ID NO: 292 (antibody, V domains shown)
VH: QVQLHQPGTSLVKPGASVKLSCKASGYSFSSYYMHWVKQRPGQGLEWIGTIHPSDSTTNYNQKFKGKATLTVDKSSRTAYMQLNSLTFEDSAVYYCANFVYWGQGTSVTVSS
VL: DIVITQDELSNPVTSGDSVSISCRSSKSLLYKDGKTYLNWFLQRPGQSPQLLIYVVSTRASGVSDRFSGSGSGTDFTLEISRVKAEDVGVYYCQQLVEYPYTFGGGTKLEIK
TM1 [1]: 61.9 °C | Median % T/C (whole body BLI) (MM1.S (Luc) cells; day 35, vs vehicle control): 13.1% | Tumor growth delay (time to median BLI of 1.0×10^9 p/s) relative to vehicle control (MM1.S (Luc) cells; i.p. twice weekly, mAb 4320 4, 8, 16 mg/kg, mAb 2810 4 mg/kg): 6.6 days | Expression [2]: 30.2 mg/L
